Here are results for one molecule from PMC12985673.

The experiment concerns the target NRXβ1 ECD (amino acids 81 to 311), His-tagged, labelled with Alexa Fluor 488, P0DI97. As to the kind of experiment: fluorescence polarisation. Conditions: chain shown with the change; Hill equation fit, shared slope n = 1.05 ± 0.05; NL2 concentration 0-8 µM; parent: 6.2 ± 0.4 µM.

Chain of NRXβ1 ECD (amino acids 81 to 311), His-tagged, labelled with Alexa Fluor 488, P0DI97 (P0DI97 other isoform, or with tags, fused parts or gaps): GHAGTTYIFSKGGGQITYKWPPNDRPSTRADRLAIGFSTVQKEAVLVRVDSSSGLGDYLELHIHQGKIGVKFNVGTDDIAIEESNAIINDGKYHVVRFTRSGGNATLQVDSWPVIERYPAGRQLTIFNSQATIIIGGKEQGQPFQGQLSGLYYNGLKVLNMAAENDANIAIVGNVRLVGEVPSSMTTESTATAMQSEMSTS

B1: full-length neuroligin 2 (NL2), mouse, without the splice insert at site A, Q69ZK9 H279Y; G282K (protein)
chain: MWLLALCLVGLAGAQRGGGGPGGGAPGGPGLGLGSLGEERFPVVNTAYGRVRGVRRELNNEILGPVVQFLGVPYATPPLGARRFQPPEAPASWPGVRNATTLPPACPQNLHGALPAIMLPVWFTDNLEAAATYVQNQSEDCLYLNLYVPTEDGPLTKKRDEATLNPPDTDIRDSGKKPVMLFLHGGSYMEGTGNMFDGSVLAAYGNVIVVTLNYRLGVLGFLSTGDQAAKGNYGLLDQIQALRWLSENIAHFGGDPERITIFGSGAGASCVNLLILSHYSEKLFQKAIAQSGTAISSWSVNYQPLKYTRLLAAKVGCDREDSTEAVECLRRKSSRELVDQDVQPARYHIAFGPVVDGDVVPDDPEILMQQGEFLNYDMLIGVNQGEGLKFVEDSAESEDGVSASAFDFTVSNFVDNLYGYPEGKDVLRETIKFMYTDWADRDNGEMRRKTLLALFTDHQWVAPAVATAKLHADYQSPVYFYTFYHHCQAEGRPEWADAAHGDELPYVFGVPMVGATDLFPCNFSKNDVMLSAVVMTYWTNFAKTGDPNQPVPQDTKFIHTKPNRFEEVVWSKFNSKEKQYLHIGLKPRVRDNYRANKVAFWLELVPHLHNLHTELFTTTTRLPPYATRWPPRTPGPGTSGTRRPPPPATLPPESDIDLGPRAYDRFPGDSRDYSTELSVTVAVGASLLFLNILAFAALYYKRDRRQELRCRRLSPPGGSGSGVPGGGPLLPTAGRELPPEEELVSLQLKRGGGVGADPAEALRPACPPDYTLALRRAPDDVPLLAPGALTLLPSGLGPPPPPPPPSLHPFGPFPPPPPTATSHNNTLPHPHSTTRV
Turning to B1, the Kd amounted to 320 nM.
